Measurements reported in patent publication US20130150287A1.

Biological target: integrin overexpressed on cancer cells
Assay: cell-based or functional assay

Binder: CDCRGDCFC [RGD peptide (…)]
- reduction of cellular uptake of the recombinant protein particle by B16F10 cells after preincubation with 100-fold molar excess of RGD peptide: 40%
- reduction of cellular uptake of the recombinant protein particle by B16F10 cells after preincubation with 200-fold molar excess of RGD peptide: 95%
- reduction of cellular uptake of the recombinant protein particle by B16F10 cells after preincubation with 400-fold molar excess of RGD peptide: 95%
